# Laboratory results from the RNAGym collection of RNA variant scans (doi:10.7554/elife.80360).
# B1: HDV Ribozyme (parent)
# chain: GGCCGGCAUGGUCCCAGCCUCCUCGCUGGCGCCGGCUGGGCAACAUUCCGAGGGGACCGUCCCCUCGGUAAUGGCGAAUGGGACCCA
# Variants of: B1
# Assay: self-cleavage, relative activity (ratio to wild type); higher = more cleavage; co-transcriptional
row,Variant,self-cleavage
1,G53U G55C,1.01
2,G54C G73A,0.565
3,G54U G68U,0.842
4,G54U G68C,0.496
5,G54U G68A,0.81
6,G54C U79A,0.755
7,G54C U79G,0.475
8,G54U G67C,0.694
9,G54U G67U,0.774
10,G54U A71G,0.897
11,G54U A71C,0.654
12,G54U A71U,0.987
13,G53C U60A,1.15
14,G53A G67U,0.884
15,G53C G82C,0.0923
16,G53C G82U,0.358
17,G53C G82A,0.383
18,G54U G82U,0.432
19,G54U G82C,0.237
20,G53U C85U,0.969
21,G54C G68U,0.616
22,G54U A70U,0.997
23,G54A G73A,0.394
24,G54A G73C,0.527

row,Variant,self-cleavage
1,G54A G73U,0.211
2,G53U G59A,1.14
3,G53U G59C,1.23
4,G53U G59U,0.899
5,G55A U60A,0.99
6,G55A U60G,0.798
7,G54C G80U,0.206
8,G54C G80C,0.256
9,G53U A87G,1.03
10,G53U A87U,0.969
11,G53U A87C,0.984
12,G54C G55C,0.981
13,G54C G55U,1.05
14,G54A U65G,0.466
15,G54A U65A,0.267
16,G54C A83G,0.905
17,G54U C75A,0.241
18,G54U C75U,0.189
19,G54A U69G,0.882
20,G54A C58G,1.03
21,G54U A83C,0.386
22,G54U A83G,0.956
23,G53A C85U,0.872
24,G54U G55C,0.953

row,Variant,self-cleavage
1,G53C G54U,1.08
2,G53C G54C,0.706
3,G55A C66U,1.11
4,G55A C66A,1.07
5,G53U G81U,0.28
6,G54U U60A,0.946
7,G54U U60C,1
8,G53C U79G,0.443
9,G53C U79A,0.538
10,G53U G54C,0.845
11,G53U G54U,0.831
12,G53U G54A,0.758
13,G55A C61U,0.96
14,G53U G74A,0.646
15,G53U G74C,0.202
16,G53U G74U,0.701
17,G54A A77U,0.634
18,G54A A77G,0.614
19,G53C G81U,0.293
20,G53C G81A,0.369
21,G53A G54C,0.857
22,G54A U72A,0.707
23,G55A G81C,0.312
24,G53C C62U,1.03

row,Variant,self-cleavage
1,G53C C62A,0.937
2,G53C C58A,1.06
3,G53C C58U,1.14
4,G54A G59U,1.06
5,G54C G59A,0.926
6,G53A U60G,1.01
7,G53A U60A,0.938
8,G55A G73A,0.812
9,G54C G74U,0.475
10,G54U C66G,0.882
11,G54U C66A,0.796
12,G54C G67U,0.783
13,G54C G67A,0.819
14,G54C G67C,0.627
15,G54U A77C,0.415
16,G54U U79G,0.266
17,G54U G73C,0.297
18,G54U G73U,0.364
19,G54A G68A,0.895
20,G54A G68U,0.641
21,G53U C57U,1.01
22,G53U C57G,1.1
23,G54C C75A,0.138
24,G54C C75U,0.358

row,Variant,self-cleavage
1,G54C C75G,0.151
2,G53C C86G,0.903
3,G55A A78G,0.698
4,G55A A78U,0.201
5,G55A A78C,0.0639
6,G54U C58U,0.94
7,G53C C66G,1.01
8,G53C C66A,0.73
9,G53C C66U,0.918
10,G53C A77C,0.443
11,G54A A70C,0.779
12,G53A U72G,0.429
13,G53A U72C,0.731
14,G54U U72A,0.614
15,G54U U72C,0.554
16,G54U U72G,0.919
17,G53A G81U,0.272
18,G53A G81A,0.456
19,G54U G74A,0.601
20,G54U G74U,0.421
21,G55A C86A,0.978
22,G55A C86G,0.818
23,G54A G80C,0.0831
24,G54A G80U,0.214

row,Variant,self-cleavage
1,G54U U65G,0.782
2,G54U U65C,0.969
3,G55A G59A,1.13
4,G55A G59U,0.973
5,G53U U72G,0.554
6,G53U U72A,0.798
7,G53U U72C,0.563
8,G54A C66A,0.634
9,G54A C66G,0.821
10,G54A C66U,0.933
11,G54A C84G,0.462
12,G54A C84A,0.496
13,G54A C84U,0.563
14,G54U C61A,1.04
15,G54U C61G,0.889
16,G55A C58U,1.07
17,G55A C58A,0.978
18,G54C A77U,0.695
19,G54C A77C,0.426
20,G54A C75A,0.211
21,G54A C75U,0.164
22,G54A C75G,0.185
23,G54A C61G,0.881
24,G54A C61U,1.04

row,Variant,self-cleavage
1,G55A A77G,0.991
2,G55A A77U,0.694
3,G54A G82C,0.282
4,G54A G82A,0.208
5,G54A A56C,1.03
6,G54A A56U,0.878
7,G53A C64U,0.968
8,G54U C64G,0.831
9,G53C G59U,0.967
10,G53A C75G,0.156
11,G55A,0.996
12,G53A G74C,0.265
13,G53A G74U,0.59
14,G53U U69A,0.969
15,G53U U69C,0.931
16,G53U U69G,0.964
17,G53C A78U,0.525
18,G53C A78G,0.554
19,G53U C75G,0.214
20,G53U C66G,0.821
21,G53U C66U,1.15
22,G55A C63G,0.632
23,G55A C63A,1.21
